In the domain aggregation screens of Martell et al. (2025):

Assay: soluble fraction after stress (log2 fold change); higher = more stays soluble; pooled small domains, quantitative proteomics
Conditions: stress: 75 degC
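Also: 20 min heating vs room temperature control held 20 min.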

Row | Sequence | soluble fraction (log2)
1 | HMQETALANFETNEGVQKVKQYVQENVPSLRGSNIVGVWTSYTPEGLTNYRTRFLTQDGQFVEVNLAYQ | -0.203
2 | HMSAEDQRRASQEAAYRFMQVMAGNEAGFEDAARALFAGDNHRFEVLIQSWPDDVRDHVSLLSVDAFA | -0.651
3 | HMYINVQNARTIASFRSSLWRMHRDFTNQGYITADGLKTFLEMGKLYEDAGGNDIYHSKLLPEITALEIKY | -2.84
4 | HMSNVIYFNYNDYKFLFMGDAGVDKETDILEKYTLSNIDFLKVGHHGSDTSSNKGFIDSIQPKYSLIS | -1.53
5 | HMTKTKADKIDYAIGDSGTEPPTEDKWTDLAHLPLIKAGQFQWTRRTEYYSDGSTAVSYNIAKSE | 0.096
6 | HMDAAYVYVIGTRVNQRAGPSTSNAVMGVLSEGTRVETLRDEGQWTQIRSNFGTGWMSSSFLSSVAP | -1.28
7 | HMPGRKKLAIIYKNDYIGAFNLADSYRDSYEVSMYAFPKKVGKLLNRLELQGFNAYVIYDKDNEENNFNTI | -1.82
8 | HMLNIVTIFEEQFGRPLSPIELNIIKDWKESDYSDEMIVKALKEAVKSQVLNFRYVEGILNNWAKNG | -0.783
9 | HMETSIQFIRLEIGHNHPWVNQTLKEIPTIPGTLIAAVLRGDEDQAIIPKGDTLLKEGDSVIIGAKEYQD | -1.42
10 | HMSVDVEGNQRIPTEQVLSELRDVGVSFGKRVSGLNADTIRNQMIINNDEIAWLGVNVRGSRVYVEITERI | 0.125
11 | HMDKLSYALGLSMGHNFLGSGIKSLNVEDFAKGVEAVYKQEKPEISFDEAKKIINEFFSNLQDEIAE | -1.01
12 | HMNTLTKEDIQKAIDVIPIDFKSVVILNLVEGFSYKETAEILEIPIGTVMSRLHRGRKILQKLLWEYSSSK | -1.4
13 | HMSVSVEEDADGRVWVYYQDQKMDITDLFDENGVYGFNLEKGDRTVYVEVTKNADGTYSFTQTD | 0.427
14 | HMFAQDQLFKKDNSKVDVKILEINTTEIKYKLFTYQDGPTITVAKKDVALIIYQNGVHEVIT | -2.53
15 | HMEDAFLQRLISIIEANLSNVDFNVKMLAEQLNMSQPTLYRKVKQRSELSVIDMIRSIRILSLIHISEPTR | -1.07
16 | HMFDITKEVLKQSGLYNLYKNDESLEGINRIQNIEELLNGIKDFVENNEKSQASVSSFLQDVALATDQ | 0.258
17 | HMKLHFTINGVHYTWYKQFIRGIQIRELGNIPREDELYLDLPDGWKDDFIEDDEIVDLARPGVEHFISRAK | -4.84
18 | HMAEVIYGAGKTPAQMLGILRTMQAHGQKTVLITRLREEAAEEIGREIPLQYDKTAGVGIVGTLPQPDG | -0.102
19 | HMPDAENFRYRVPYTTEQNRLQYYEGDIRAENADKARDQVMQDAQKYFAQNTAFTPNYIDTDIISLD | 0.946
20 | HMLLPGEELRVMIIQEGKEYGQGVGYLDDGTMVVVEDGQRALNRTENVVVTKVLQTTAGRMIFAK | -0.71
21 | HMGHASPGNREALQFALERHQARAAEFAEKAGLSIANASTKFKQLWEQGFLMRNESVADSGGVEFLYQR | -0.113
22 | HMNDIDKFVAALVDQDTMAGTNRAFDENDIQTMKNMSSIEDVKQYAVANGLSSGKVNNALISAGL | 0.234
23 | HMKTGIGIVEANGGLRLRSQASTSSDVLSTAHNGDNVVVIRQVGNWYLVNYNLKIGYMHSDYITFKE | -5.04
24 | HMEQTIKKYVNVATLNFRSGPSTSYSIISTLSKGTKVEVISTTNNWSKIIYDGKIGYVSSEYLSKSI | -3.07
25 | HMETTVSYSGVVTASVLRIRKGPSVSSSVAGTLKKGTGVSIIFEDNGWGKLADGSGWVSLTYIKKNSTP | -2.33
26 | HMGSATAPDLKGLTYEQAQTKAEDAGYNIEKGEDVYDNDVEKGKVASQDPEAGAEAKEGSVITVNISK | -0.0215

Row | Sequence | soluble fraction (log2)
27 | HMERAPAYPDGLTQREVEVLRLIASGKTDREIAEELFIGVRTVSTHVGNILNKTNSANRTEAASYANQQGL | -0.0632
28 | HMFLSSEERRERIIEVLRQQDEVTVVELSHRLGVSEVTTRKDLQQLEEQGYLTRVRGGAVVSGRGQL | -0.0348
29 | HMNMPDVTVEWVKEQQAKFGLTDSDLAKSVNIDNANLARIFNQRGLTKIHKALFYYFFRAYGLQ | -3.33
30 | HMSKKMLASIFDTISGIGKKRLKKIWDNYTSLNELKDDSLENIYAKTQIPINLITKIKEKLE | -0.913
31 | HMVPSTAVIFTELVSMRSEPATKSPVTHQLTKGTAITINEEKDGWYQVTDQTGNSGWIVKWAVKPTYFTNP | -0.967
32 | HMSENLESEFFGIVVITQTLLQKELRDKPMTVELIRKTVEDVMSKHYSDSSVDKAKVEEELIRRFSTW | -1.32
33 | HMEAGLRMPEQLTAFSALALLQKVRDSGPLTDAQKEQLDADVLRIEASHFGKADREALELEEILKQWLSRV | 0.149
34 | HMSNIIGNTAYSAIPDKQYFRLKSETAEKVANYLTENNIPFSGRINGDKTTLTIGQKNVDDYKAAVATVTG | 0.0528
35 | HMGDLTVPDLSGLTVDQAKQRLKDMGLVLGKITTQEDSSKPDGVIISQSPSADGKINKGQLVDVVVNKLS | 0.034
36 | HMSKTQYTFREVGSQFELHAPSTNHKIMVDANHPKYGWLSSQEAGRVINVYESGKMTSSQDYYGLYKQS | -0.092
37 | HMDNEVTIAVQVNGKLRDKLIVALDTPNEKIEQLALALPKVIQNTSGLTVRKVIVIPNRLVNIVA | -1.92
38 | HMNPASVLDGLKITSFSPTRAIVAGPGGSRIVFDNEAVVLGGIEWDVHIQRNGIEFTSQGQTVLLLFDRS | -2.35
39 | HMTPIELIEKTIELIENERKVQKLQQKELALKADIPFPTYKDFIYKKRASLENILKLFIALRLF | -0.384
40 | HMTSLAEQAYRHIRDKLSNGAFVPGEQLVNRVLATEIGVSVIPVREAINRLATEGLVKHVPGSGAFVRQ | -0.0622
41 | HMENQFNDWSLTPSEKEVALFMLKGLSTQEIAAARNTKEKTVRQQASAVYAKSQLDGRYALAAWFFEDI | -0.702
42 | HMKVKIFNGMKLVTNSTGLTVDGKPAALDESNADAKTYSQGLYVFIVYQSGKIAVMQDGKFLGYA | -3.34
43 | HMRAEELEQFVERLKNEVMNNFPLKELSDNELREKIENLVEIRLANVYVSIEQRVAIAEQIYSSIR | -1.1
44 | HMLKGTVKWFNESKGFGFIEQEEGKDVFVHYSAITGSGFKTLNEGDKVQFEIVDGPKGPAAANVSK | 0.036
45 | HMNNIIEQIKADIKKLEEKLDKSSENALNKLEKDYSSLSTESKKKLDDAGYGARIKALRVKFAALSTQ | -0.0452
46 | HMRGGWESLTDREREIAVLAAEGHSNRTIASTLFISDRTVQSHVSRALRALGVDSRTGIPSLVTTATR | 0.09
47 | HMERYLLRDNIPNALHGERLDRVIAIMTGLSRSAVSALIKSNQVLRNGQIAQSISEKVVEGDELEVHLEP | -0.832
48 | HMTDFNTFSDAIIAAVGSRASGLKVVDNAVSVMVDVSGLNEDQRVEIEADVRAAAEHAGAQSVRIMLT | -0.58
49 | HMGGRRHANMSREEEAAFLAPFFEKAAQGGILVVREIRQALDAHLGRTVPLSTVYNLLHRHNWRKL | -3.39
50 | HMGNLEENFRLKAGTEDGAWEFIRYHLGKLPVVNESNGTAIVNAERQAFLLFDRMVAFHIQRGVMVPLSAP | -0.0214
51 | HMHVSLADQAYKTIRTNILNLTYPPGTQLTEAKLASDLNMSRSPVRTAIKMLQADGLLVSDYYKSMTVK | -1.21
52 | HMSPVKAPLPGVVLDIHVSVGQEVKASDTVVTLEAMKMENAIKAGVDGKVASISVGKGDSVLEGAVLLTI | -0.0893

Row | Sequence | soluble fraction (log2)
53 | HMNMNDIKFGKYLKRVRKKYNFSKEYVANILKVKESLVSDWESGRLTLNDEYMEKLSLFYGVNLYKK | -1.57
54 | HMLLLASTPAEQTIIQLLAEGWRDGDQLQQRSHLSAADFSTALTMLEVNGSIKPLGANHWALTH | -1.26
55 | HMLDQGTQSRYQIMDGVRALITGDWSSHGAGLVRELSQEVARTSGLTATSERTFFVPFSALS | 0.00593
56 | HMKTLKHYFASIAHEFGREEAELMLLSVFKTPFEQRLMLFMKDPALTEAQVQQLDNLVRQRKQGVPLPYIL | -2.68
57 | HMSVPSLVGKTDSEAQSAIKSAGLKVGTVTYQYSDETEKGYVVSQSPYSGNKVNAGSTVNIVVSKGK | 0.0467
58 | HMSEFLTIVRAVYSGLSRRKVAAMHKVSRNTVSLYLRQARDQGWLTLEDLEKLDDLTVSQGVS | -2.08
59 | HMHDYTTIIGVIELRLNKISYDNVQKRYRIGRSGISLIMERYRDSGLSLDDLKQMPAEKVVNLIYPKD | -2.88
60 | HMGRMTRKDRALATDLYGRIVGNVDDFHEGRIDYETFSERQRGLWTTLDAAGPEVKRAVLADIRERL | -0.563
61 | HMEHAETDTRERILVVAERLFRQLGYQKTTVADIAKELRMSPANVYRFFDSKKSIHEGVARTL | -0.896
62 | HMKSFIWKQYTVQITKKNVKNTNVRIKRDNPHVILMSIPYSATYKAGLLALETPHIRHWLDNYERKLKQ | -1.45
63 | HMSQKVQEDFLGDIRKNEIAVTVFLINGVKLQGVITWFDDASILLRRDGHTQLIYKHAVSTIMPGVAVDI | -0.582
64 | HMSKEDDSLVVTFRRMLLEEVDLHELSRIDANQRRARLERVIAHLVSREGVILSASERNQLVRRVVDEAV | -2
65 | HMVDFVNVVVPVKANYGGEAVVEFLDERLSEFGTEGIYRIELQGETMENPSPDYSQLKAKYHISEIVDRT | 0.0718
66 | HMSGNPLDTYYSKWSAEIKKGSPNAVISKEGDKYYVSIPGENRMAIIYENPHLIRMVNATRNIHVE | -0.092
67 | HMGQAEEVRYSTFLDEVRNGRIEQVVLQGEHIIGTRKDKTVFSVFNPETDYTALIGTLSKSGVTIEGRP | 0.283
68 | HMANIAVTIPTGSSGDRIADILLQAGLIKDKQDFNQAVIAAGAEGKLRAGYFVIPSNATPAEIISILT | -0.521
69 | HMANILKHKNKDGVITSYTIRVYHGYDEAGKRLRPYTMNYKPAPNMTARQIEKELNRQAVQFEEQIKNGYA | -0.892
70 | HMTKEEKEKREKYEKLMKKADELVTAKNHKEAVTVLGQAKAYANPQQTKEIEEKIKAQTAELDKG | 0.548
71 | HMIILDASASRAIGNGTIEETKWDFGNGESSTNRGGPIVERQIYANQAAYILKLSMKTNDGQLFTKEIQLL | 0.162
72 | HMKTALQENVRAYRLERKWTQQALAEALEVSVGAVSKWESGVSRPELETLMRLAELFGVSTDALLGF | -2.33
73 | HMIDFDEQGNLWVHEMGPRHGDELNLIEKARNYGYPTVSQGDHYSGVKISNHEDIPIFKSPEKAWVPAISP | -0.228
74 | HMGSLVVVPNLVGQNYDEVKLSTKYSDFEIVQKNTEYSEAPAGQIIKQDPEAGTKVKKHSTINVTVSK | -0.167
75 | HMDISPAAKQRLALIQPLLEKNAEAITDRKLRNAVAKDIANNQNTTVRRVLRLYYRYLATGQVM | 0.192
76 | HMDDFVEIDGKKYEIDMSFDNILRLFDLLKDKSLNDVTKIETGLIMLIDDSLDDYDTEEKADIFVQIF | -0.411
